Common to all, as to test: cell-based or functional assay
In assay [1] the target is human MMP13 (activated) (human) (UniProt P45452).
Assay [2] deals with cynomolgus MMP13 (activated) (cynomolgus).
Assay [3] addresses rat MMP13 (activated) (rat) (UniProt P23097).
Assay [4] has as its target bovine MMP13 (activated) (bovine) (UniProt O77656).
Assay [5] concerns the target dog MMP13 (activated) (dog).

Regarding TIMP-2 (from UniProt P16035 27-220), in assay [1], the IC50, human collagenolytic assay stood at 0.4 nM; the IC50, human fluorogenic collagen assay was determined as 2.4 nM; the IC50, human fluorogenic peptide assay came to 0.5 nM. In assay [2], this substance registered an IC50, cyno fluorogenic peptide assay of 0.4 nM. Further, the IC50, rat fluorogenic peptide assay in assay [3] was 0.4 nM. The substance further showed an IC50, bovine fluorogenic peptide assay in assay [4] of 1.1 nM. This substance displayed an IC50, dog fluorogenic peptide assay in assay [5] of 0.9 nM.

The values are drawn from US20240181006A1, “POLYPEPTIDES BINDING ADAMTS5, MMP13 AND AGGRECAN” (Merck Patent GmbH, priority 2017, published 2024).
